Key:
Assay in all cases: Microtiter plate biofilm detachment assay
[1] = system: pre-formed S. lugdunensis biofilms; assay type: cell-based, Staphylococcus lugdunensis; conditions: 2 hours at 37° C.; safranin OD492; 15 clinical isolates
Method: 40 mM sodium metaperiodate (NaIO4, Sigma-Aldrich) in water, 40 μg/mL purified recombinant dispersin B (obtained from Kane Biotech Inc., Winnipeg, Manitoba, Canada) in sodium phosphate buffer (50 mM sodium phosphate (pH 5.8), 100 mM NaCl), 100 μg/mL proteinase K (Roche Applied Science) in 10 mM Tris-HCl pH 7.5, 10 U/mL trypsin (Promega Corp., Madison, Wis.) in 10 mM Tris-HCl pH 7.5, 100 μg/mL chymotrypsin (Sigma-Aldrich) in 10 mM Tris-HCl pH 7.5, and 100 μg/mL thermolysin (Sigma-Aldrich) in 10 mM Tris-HCl pH 7.5 were tested for their ability to detach pre-formed S. lugdunensis biofilms from polystyrene microtiter plate wells. For certain experiments, proteinase K was inactivated by boiling for 40 minutes.
Biofilms grown in TSBgluc1% were formed in wells of microtiter plates and washed twice with deionized water, as described above for the microtiter plate biofilm formation assay. 100 μL of NaIO4, enzyme, or suitable control was carefully added so as not to mechanically detach biofilms on the bottoms of wells. Plates were incubated at 37° C. for 2 hours, and contents of wells were discarded and washed twice with deionized water. Plates were air-dried overnight, stained with 0.1% safranin for 1 minute, and processed as described above to quantify the amount of stained biofilm remaining after treatment, relative to treatment with the control reagent. Four wells were measured for each treatment condition. Assays were repeated two or three times on separate days with similar results.

[2] = system: pre-formed biofilms of S. epidermidis RP62A; assay type: cell-based, Staphylococcus epidermidis; conditions: 2 hours at 37° C.; safranin OD492
[3] = system: pre-formed biofilms of S. carnosus TM300+pCN27; assay type: cell-based, Staphylococcus carnosus; conditions: 2 hours at 37° C.; safranin OD492

B1: thermolysin: protease (Sigma-Aldrich), 100 μg/mL in 10 mM Tris-HCl pH 7.5 (protein, UniProt P00800 233-548, looked up)
Thermolysin: ITGTSTVGVGRGVLGDQKNINTTYSTYYYLQDNTRGNGIFTYDAKYRTTLPGSLWADADNQFFASYDAPAVDAHYYAGVTYDYYKNVHNRLSYDGNNAAIRSSVHYSQGYNNAFWNGSQMVYGDGDGQTFIPLSGGIDVVAHELTHAVTDYTAGLIYQNESGAINEAISDIFGTLVEFYANKNPDWEIGEDVYTPGISGDSLRSMSDPAKYGDPDHYSKRYTGTQDNGGVHINSGIINKAAYLISQGGTHYGVSVVGIGRDKLGKIFYRALTQYLTPTSNFSQLRAAAVQSATDLYGSTSQEVASVKQAFDAVGVK
biofilm detachment compared to buffer [1]: detach S. lugdunensis biofilms selectively

B2: Proteinase K: protease (Roche Applied Science), 100 μg/mL in 10 mM Tris-HCl pH 7.5 (protein, UniProt P06873 106-384, looked up)
Proteinase K: AAQTNAPWGLARISSTSPGTSTYYYDESAGQGSCVYVIDTGIEASHPEFEGRAQMVKTYYYSSRDGNGHGTHCAGTVGSRTYGVAKKTQLFGVKVLDDNGSGQYSTIIAGMDFVASDKNNRNCPKGVVASLSLGGGYSSSVNSAAARLQSSGVMVAVAAGNNNADARNYSPASEPSVCTVGASDRYDRRSSFSNYGSVLDIFGPGTSILSTWIGGSTRSISGTSMATPHVAGLAAYLMTLGKTTAASACRYIADTANKGDLSNIPFGTVNLLAYNNYQA
biofilm detachment compared to buffer [2]: no effect
biofilm detachment compared to buffer [3]: no effect
biofilm detachment compared to buffer [1]: completely removed

B3: heat-inactivated proteinase K: proteinase K inactivated by boiling for 40 minutes (protein, UniProt P06873 106-384, looked up)
Proteinase K: AAQTNAPWGLARISSTSPGTSTYYYDESAGQGSCVYVIDTGIEASHPEFEGRAQMVKTYYYSSRDGNGHGTHCAGTVGSRTYGVAKKTQLFGVKVLDDNGSGQYSTIIAGMDFVASDKNNRNCPKGVVASLSLGGGYSSSVNSAAARLQSSGVMVAVAAGNNNADARNYSPASEPSVCTVGASDRYDRRSSFSNYGSVLDIFGPGTSILSTWIGGSTRSISGTSMATPHVAGLAAYLMTLGKTTAASACRYIADTANKGDLSNIPFGTVNLLAYNNYQA
modifications: heat-inactivated
biofilm detachment compared to buffer [1]: detachment effect was found to be abolished

From patent publication US8802414B2, “Methods and materials for reducing biofilms” (priority 2007, dated 2014)
